Measurements reported in the FLAb antibody collection (doi:10.1101/2023.12.08.570889).

Molecular target: TSLP, Q969D9
Assay: Kd (SPR)

B1: unnamed (protein)
chain 1: QMQLVESGGGVVQPGRSLRLSCAASGFTFSTFAMHWVRQAPGKGLEWVAVIWYDGSNKHYADSVKGRFTITRDNSKNTLNLQMNSLRAEDTAVYYCARAPRYYDYYEAFDVWGQGTMVTVSS
chain 2: SYVLTQPPSVSVAPGQTARITCGGNNLGSKSVHWYQQKPGQAPVLVVYDDSDRPSWIPERFSGSNSGNTATLTISRGEAGDEADYYCQVWDSSSDHVVFGGGTKLTVL
- Kd: 56.8 nM

B2: unnamed (protein)
chain 1: QMQLVESGGGVVQPGRSLRLSCAASGFTFSTFAMHWVRQAPGKGLEWVAVIWYDGSNKHYADSVKGRFTITRDNSKNTLNLQMNSLRAEDTAVYYCARSPRYYDYYEAFDVWGQGTMVTVSS
chain 2: SYVLTQPPSVSVAPGQTARITCGGNNLGSKSVHWYQQKPGQAPVLVVYDDSDRPSWIPERFSGSNSGNTATLTISRGEAGDEADYYCQVWDSSSDHVVFGGGTKLTVL
- Kd: 41.8 nM

B3: unnamed (protein)
chain 1: QMQLVESGGGVVQPGRSLRLSCAASGFTFSTFAMHWVRQAPGKGLEWVAVIWYDGSNKHYADSVKGRFTITRDNSKNTLNLQMNSLRAEDTAVYYCARSPRYDDYLEAFDVWGQGTMVTVSS
chain 2: SYVLTQPPSVSVAPGQTARITCGGNNLGSKSVHWYQQKPGQAPVLVVYDDSDRPSWIPERFSGSNSGNTATLTISRGEAGDEADYYCQVWDSSSDHVVFGGGTKLTVL
- Kd: 80.5 nM

B4: unnamed (protein)
chain 1: QMQLVESGGGVVQPGRSLRLSCAASGFTFSTYAMHWVRQAPGKGLEWVAVIWYDGSNKHYADSVKGRFTITRDNSKNTLNLQMNSLRAEDTAVYYCARAPRYYWYYEAFDVWGQGTMVTVSS
chain 2: SYVLTQPPSVSVAPGQTARITCGGNNLGSKSVHWYQQKPGQAPVLVVYDDSDRPSWIPERFSGSNSGNTATLTISRGEAGDEADYYCQVWDSSSDHVVFGGGTKLTVL
- Kd: 87.1 nM

B5: unnamed (protein)
chain 1: QMQLVESGGGVVQPGRSLRLSCAASGFTFSTFAMHWVRQAPGKGLEWVAVIWYDGSNKHYADSVKGRFTITRDNSKNTLNLQMNSLRAEDTAVYYCARAPRYDEYWEAFDVWGQGTMVTVSS
chain 2: SYVLTQPPSVSVAPGQTARITCGGNNLGSKSVHWYQQKPGQAPVLVVYDDSDRPSWIPERFSGSNSGNTATLTISRGEAGDEADYYCQVWDSSSDHVVFGGGTKLTVL
- Kd: 764 nM

B6: unnamed (protein)
chain 1: QMQLVESGGGVVQPGRSLRLSCAASGFTFSTYAMHWVRQAPGKGLEWVAVIWYDGSNKHYADSVKGRFTITRDNSKNTLNLQMNSLRAEDTAVYYCARSPRYYEYYEAFDVWGQGTMVTVSS
chain 2: SYVLTQPPSVSVAPGQTARITCGGNNLGSKSVHWYQQKPGQAPVLVVYDDSDRPSWIPERFSGSNSGNTATLTISRGEAGDEADYYCQVWDSSSDHVVFGGGTKLTVL
- Kd: 57 nM

B7: unnamed (protein)
chain 1: QMQLVESGGGVVQPGRSLRLSCAASGFTFSTFAMHWVRQAPGKGLEWVAVIWYDGSNKHYADSVKGRFTITRDNSKNTLNLQMNSLRAEDTAVYYCARAPRYDDYYEAFDVWGQGTMVTVSS
chain 2: SYVLTQPPSVSVAPGQTARITCGGNNLGSKSVHWYQQKPGQAPVLVVYDDSDRPSWIPERFSGSNSGNTATLTISRGEAGDEADYYCQVWDSSSDHVVFGGGTKLTVL
- Kd: 92.5 nM

B8: unnamed (protein)
chain 1: QMQLVESGGGVVQPGRSLRLSCAASGFTFSTFAMHWVRQAPGKGLEWVAVIWYDGSNKHYADSVKGRFTITRDNSKNTLNLQMNSLRAEDTAVYYCARAPRYDDDYEAFDVWGQGTMVTVSS
chain 2: SYVLTQPPSVSVAPGQTARITCGGNNLGSKSVHWYQQKPGQAPVLVVYDDSDRPSWIPERFSGSNSGNTATLTISRGEAGDEADYYCQVWDSSSDHVVFGGGTKLTVL
- Kd: 112 nM

B9: unnamed (protein)
chain 1: QMQLVESGGGVVQPGRSLRLSCAASGFTFSTFAMHWVRQAPGKGLEWVAVIWYDGSNKHYADSVKGRFTITRDNSKNTLNLQMNSLRAEDTAVYYCARAPRYYEYYEAFDVWGQGTMVTVSS
chain 2: SYVLTQPPSVSVAPGQTARITCGGNNLGSKSVHWYQQKPGQAPVLVVYDDSDRPSWIPERFSGSNSGNTATLTISRGEAGDEADYYCQVWDSSSDHVVFGGGTKLTVL
- Kd: 106 nM

B10: unnamed (protein)
chain 1: QMQLVESGGGVVQPGRSLRLSCAASGFTFSTFAMHWVRQAPGKGLEWVAVIWYDGSNKHYADSVKGRFTITRDNSKNTLNLQMNSLRAEDTAVYYCARAPRYDEHYEAFDVWGQGTMVTVSS
chain 2: SYVLTQPPSVSVAPGQTARITCGGNNLGSKSVHWYQQKPGQAPVLVVYDDSDRPSWIPERFSGSNSGNTATLTISRGEAGDEADYYCQVWDSSSDHVVFGGGTKLTVL
- Kd: 777 nM
